Assay results: PMC6464244, “The fungal ribonuclease-like effector protein CSEP0064/BEC1054 represses plant immunity and interferes with degradation of host ribosomal RNA”

Columns and labels:
CSEP0064/BEC1054 [1] = target: T1, CSEP0064/BEC1054 (Blumeria graminis, UniProt N1JJ94 22-118); experiment: NMR 1H-15N HSQC titration; 8 mole equivalents; discrete CSPs, weak; conditions: protein: recombinant; tags: Trx-His6 removed by TEV; NT-647 NHS amine label for MST; 15N for NMR; hairpin (SRL fold)
T1 sequence: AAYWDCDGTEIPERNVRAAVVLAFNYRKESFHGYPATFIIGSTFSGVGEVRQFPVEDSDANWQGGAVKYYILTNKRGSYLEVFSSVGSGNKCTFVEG

CSEP0064/BEC1054 [2] = target: T1, CSEP0064/BEC1054; experiment: NMR 1H-15N HSQC titration; fast exchange; small CSPs, saturation at ~50 molar equivalents; binding observed; conditions: protein: recombinant; tags: Trx-His6 removed by TEV; NT-647 NHS amine label for MST; 15N for NMR; hairpin (predicted same fold as SRL RNA)
CSEP0064/BEC1054 [3] = target: T1, CSEP0064/BEC1054; experiment: MST; up to 1 mM; no curve could be fitted; MST: 20 mM Tris pH 7.4, 150 mM NaCl, 0.05% Tween, 50 nM labelled protein; NMR: 50 uM protein, 50 mM Tris, 150 mM NaCl, 308 K; conditions: protein: recombinant; tags: Trx-His6 removed by TEV; NT-647 NHS amine label for MST; 15N for NMR; single strand

ACCUGCUCAGUACGAGAGGAACCGCAGGU (structured_RNA) [SRL RNA (barley 28S rRNA sarcin-ricin loop)]
binding result (CSEP0064/BEC1054 [1]): binds

ACCTGCTCAGTACGAGAGGAACCGCAGGT (structured_DNA, DNA version of SRL RNA) [SRL DNA oligonucleotide]
Kd (CSEP0064/BEC1054 [2]): > 10 µM

AAUUUAAUACGACUCACUAUAGG (ssRNA) [bacteriophage T7 promoter RNA (non-rRNA control)]
binding result (CSEP0064/BEC1054 [3]): no binding
